Positions count from the first letter of the chain named.

Sequences and labels used below:
B1: 1A5 (antibody, V domains shown)
VH: EVQVVESGGDLIQPGGSLRLSCVASGFTVSSNYMNWVRQAPGKGLEWVSVIYSGGNTYYADSVKGRFTISRDNSKNTLYLQMNSLRAEDTAVYYCARDSSVVVGLGYFDLWGRGTLVTVSS
VL: SYELTQPPSVSVSPGQTASITCSGDKLGANYASWYQQKPGQSPVLVIFQDTKRPSGIPERFSGSNSGNTATLTISGTQAMDEADYYCQAWDFSTVIFGGGTKLTVL
notes: fully human XenoMouse hybridoma antibody; tested as hybridoma supernatant and as purified antibody; also called MAb 1A5
B2: 1H8 (antibody, V domains shown)
VH: QVQLQESGPGLVKPSETLSLTCTVSGGSISSYYWTWIRQPPGKGLEWIGYIYYSGSTNYNPSLKSRVTISVDTSKNQFSLKLSSVTAADTAVYYCARDRLLYGMDVWGQGTTVTVSS
VL: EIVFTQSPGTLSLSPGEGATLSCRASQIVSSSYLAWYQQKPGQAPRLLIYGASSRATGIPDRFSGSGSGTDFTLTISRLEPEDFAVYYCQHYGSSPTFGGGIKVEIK
notes: fully human XenoMouse hybridoma antibody; also called MAb 1H8
B3: 1A12 (antibody, V domains shown)
VH: QVYLVESGGGVVQPGRSLRLSCAASGFTFSSYGMHWVRQAPGKGLEWVAVIWYDGSNEYYADSVKGRFTISRDNSKNTLYLQMNSLRAEDTAVYYCARDLYYYGSGSPFDYWGQGTLVTVSS
VL: EIVMTQSPATLSVSPGERATLSCRASQSVSSNLAWYQQKPGQAPRLLIFGVSIRATGIPARFSGSGSGTEFTLTISSLQSEDFAVYYCQQYNDWPRPGFGGGTKVEIK
notes: fully human XenoMouse hybridoma antibody; tested as hybridoma supernatant and as purified antibody; also called MAb 1A12
B4: 1G12 (antibody, V domains shown)
VH: B3 VH with Y3Q, S31T, E58K, K65N, A88G
VL: B3 VL with A19V, F49Y, N92D, D93N
notes: fully human XenoMouse hybridoma antibody; tested as hybridoma supernatant and as purified antibody; also called MAb 1G12
B5: 1H10 (antibody, V domains shown)
VH: B3 VH with Y3Q, Y53N, Y111D
VL: B3 VL with A9G, S30G, I58V
notes: fully human XenoMouse hybridoma antibody; tested as hybridoma supernatant and as purified antibody; also called MAb 1H10
B6: 1C8 (antibody, V domains shown)
VH: B1 VH with V4L, D10G, V23A, A24V, Y33C, N56K, Y58A, Y79C, V101M
VL: B1 VL with Q16L, A29Y, N30K, F48Y, T51I, F92S, I96V
notes: fully human XenoMouse hybridoma antibody; tested as hybridoma supernatant and as purified antibody; also called MAb 1C8
B7: 1H12 (antibody, V domains shown)
VH: QVQLVQSGAEVKKPGASVKVSCKASGYTFTGYYMHWVRQAPGQGLEWVGWFNPNSGGTNCAQKFQGRVTMTRDTSISTAYMELSRLRSDDTAVYYCAREAVESYYYGLDVWGQGTTVTVSS
VL: QSVVTQPPSASGTPGQRITISCSGSSSNIGSNYVYWYHQLPGSAPNLLIYRNNQRPSGVPDRFSGSKSGTSASLAISGLRSEDEADYFCAVWDDSLRGVVFGGGTKLTVL
notes: fully human XenoMouse hybridoma antibody; tested as hybridoma supernatant and as purified antibody; also called MAb 1H12
B8: 1F4 (antibody, V domains shown)
VH: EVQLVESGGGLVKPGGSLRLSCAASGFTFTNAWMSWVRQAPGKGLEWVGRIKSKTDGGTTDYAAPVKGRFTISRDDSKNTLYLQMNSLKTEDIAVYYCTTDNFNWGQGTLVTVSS
VL: EIVMTQSPATLSVSPGERATLSCRASQSISSNLAWYQQKPGQAPRLLIYGASTRATGIPARFSGSGSGTEFTLTISSLQSEDFAVYFCQQYHSWWTFGQGTKVEIQ
notes: fully human XenoMouse hybridoma antibody; tested as hybridoma supernatant and as purified antibody; also called MAb 1F4

In the first experiment the target is T1, Shh-N in conditioned medium (human, UniProt Q15465 24-197, N-terminal palmitoyl modification; lacks the C-terminal cholesterol moiety). As to the kind of experiment: cell-based or functional assay.
Regarding B1, the “IC50, inhibition of osteoblast differentiation (alkaline phosphatase) of C3H10T1/2 cells” value came to 4.8 nM.
On the same count and under the same terms, under B2 stands 5.7 nM; under B3, 4.6 nM.
The same measure, in the same setting: the figure for B4 is 7.1 nM.
The same measure, in the same setting: under B5 stands 4.4 nM.

Another experiment has as its target T2, full length human Shh expressed on the cell surface (human, UniProt Q15465 24-462).
T2 construct: whole, on cells; also called native human Shh; Shh-FL
Nature of the experiment: flow cytometry, transfected against parental 293T cells. Background: In flow cytometry, cells or beads pass a laser one at a time.
Experimental: (§1) Finally, binding of antibody in exhaust hybridoma supernatants to native Shh was assessed using flow cytometry. […] Transfected or parental cells were seeded into the plates with V-bottom wells (50,000 cells/well). Exhaust supernatants (50 μl of a 1:10 dilution) were added to each well and incubated at 4° C. for 1 hr. […] It was added to a concentration of 2 μg/ml in a volume of 50 μl. Cells were washed and 50 μl of a 2 μg/ml solution of secondary antibody (Cy5-labeled goat-anti-human IgG or Cy5-labeled goat-anti-rabbit IgG) were added to each well. 7AAD was added to a concentration of 5 μg/ml and the mixture was incubated for 30 min at RT. The mean fluorescence for each sample was then determined using flow cytometry.
As to B1, the ratio came out at 70.5.
On to B6, for which the ratio was found to be 33.3.
Regarding B2, the ratio came to 44.1.
Consider B3, for which the ratio stood at 78.1.
For B4, the ratio is 2.2.
The same measure, in the same setting: the figure for B5 is 40.9.
Same read-out and setting: under B7 stands 9.1; under B8, 63.8.

A further experiment has as its target T2, full length human Shh expressed on the …. Nature of the experiment: flow cytometry, exhaust hybridoma supernatant 1:10, 293T cells transiently expressing human Shh.
Experimental: as §1
In the case of B1, the “X Geo Mean (Transients)” value worked out at 265.
The same measure, in the same setting: the figure for B6 is 118; for B2 it is 165; for B3 it is 290.
The same measure, in the same setting: the figure for B4 is 8.3; for B5 it is 150; for B7 it is 34.4.
The same measure, in the same setting: the figure for B8 is 219.

The next experiment shares this target. As to the kind of experiment: FMAT, hybridoma supernatant on 293T cells transiently expressing human Shh.
Experimental: Cells were maintained at 1×10⁶ cells/ml overnight at 37° C., 5% CO₂. […] Supernatants were added to each well (10 μl/well) and incubated 1.5 hrs at RT. […] Plates were read on the FMAT 8100 HTS system from Applied Biosystems. Total signal (FL1×count) is defined as the number of positive cells in a well (count) multiplied by the average fluorescence intensity of the positive cells (FL1).
With B1, the “FL1 X COUNT” value was 304000.
Still for that read-out and setting: under B6 stands 319000.
Same read-out and setting: under B2 stands 89600; under B3, 696000.
Same read-out and setting: the figure for B4 is 327000; for B5 it is 370000; for B7 it is 1.11e+06.
Regarding B8, the “FL1 X COUNT” value came to 110000.

The target in a further experiment is T1, Shh-N in conditioned medium. As to the kind of experiment: cell-based or functional assay. The source holds these as a separate data set.
Turning to B1, the “% Inhibition of Gli1 reporter, Conditioned Media N = 1, 20 µg/ml” value stood at 35% and the “% Inhibition of Gli1 reporter, Conditioned Media N = 2, 20 µg/ml” value worked out at 34%.
The like results for B6 were, in that order, -1% and 8%.
The matching figures for B2: 34% and 48%.
Take B3: the “% Inhibition of Gli1 reporter, Conditioned Media N = 1, 20 µg/ml” value is 18% and the “% Inhibition of Gli1 reporter, Conditioned Media N = 2, 20 µg/ml” value came out at 57%.
Regarding B4, the “% Inhibition of Gli1 reporter, Conditioned Media N = 1, 20 µg/ml” value worked out at 23% and the “% Inhibition of Gli1 reporter, Conditioned Media N = 2, 20 µg/ml” value was 44%.
For the molecule B5, the “% Inhibition of Gli1 reporter, Conditioned Media N = 1, 20 µg/ml” value was 48% and the “% Inhibition of Gli1 reporter, Conditioned Media N = 2, 20 µg/ml” value was 24%.
The matching figures for B7: -5% and -5%.
Take B8: the “% Inhibition of Gli1 reporter, Conditioned Media N = 1, 20 µg/ml” value amounted to 2% and the “% Inhibition of Gli1 reporter, Conditioned Media N = 2, 20 µg/ml” value worked out at 16%.

In another experiment the target is T2, full length human Shh expressed on the …. As to the kind of experiment: cell-based or functional assay.
For B1, the “% Inhibition of Gli1 reporter, Co-Culture N = 1, 20 µg/ml” value was determined as 25%; the “% Inhibition of Gli1 reporter, Co-Culture N = 2, 20 µg/ml” value turned out to be 20%; the “% Inhibition of Gli1 reporter, Co-Culture N = 3, 20 µg/ml” value came to 20%.
B6: the “% Inhibition of Gli1 reporter, Co-Culture N = 1, 20 µg/ml” value came to 26%; the “% Inhibition of Gli1 reporter, Co-Culture N = 2, 20 µg/ml” value amounted to 10%; the “% Inhibition of Gli1 reporter, Co-Culture N = 3, 20 µg/ml” value came to 23%.
In the case of B2, the “% Inhibition of Gli1 reporter, Co-Culture N = 1, 20 µg/ml” value is 32%; the “% Inhibition of Gli1 reporter, Co-Culture N = 2, 20 µg/ml” value amounted to 25%; the “% Inhibition of Gli1 reporter, Co-Culture N = 3, 20 µg/ml” value was determined as 36%.
The matching figures for B3: 58%, 59% and 22%.
The matching figures for B4: 35%, 43% and 28%.
The like results for B5 were, in that order, 47%, 68% and 4%.
B7: the “% Inhibition of Gli1 reporter, Co-Culture N = 1, 20 µg/ml” value is 8%; the “% Inhibition of Gli1 reporter, Co-Culture N = 2, 20 µg/ml” value was 15%; the “% Inhibition of Gli1 reporter, Co-Culture N = 3, 20 µg/ml” value was determined as 13%.
As for B8, the “% Inhibition of Gli1 reporter, Co-Culture N = 1, 20 µg/ml” value was 31%; the “% Inhibition of Gli1 reporter, Co-Culture N = 2, 20 µg/ml” value was 18%; the “% Inhibition of Gli1 reporter, Co-Culture N = 3, 20 µg/ml” value amounted to 28%.

Another experiment has as its target T1, Shh-N in conditioned medium. Nature of the experiment: cell-based or functional assay. This is another data set of the same source.
For B1, the “% Inh of Gli1 reporter, CM N = 1” value is 73% and the “% Inh of Gli1 reporter, CM N = 3” value came to 62%.
The matching figures for B6: 47% and 43%.
The matching figures for B2: 52% and 42%.
The like results for B3 were, in that order, 25% and 43%.
For B4, the “% Inh of Gli1 reporter, CM N = 1” value is 32% and the “% Inh of Gli1 reporter, CM N = 3” value came out at 40%.
The like results for B5 were, in that order, 43% and 28%.
The matching figures for B7: 38% and 40%.
The like results for B8 were, in that order, 21% and 9%.

In a further experiment the target is T2, full length human Shh expressed on the …. Nature of the experiment: cell-based or functional assay. This is another data set of the same source.
B1: the “% Inh of Gli1 reporter, Co-Culture N = 1” value was 20% and the “% Inh of Gli1 reporter, Co-Culture N = 2” value is 27%.
The matching figures for B6: 32% and 24%.
Regarding B2, the “% Inh of Gli1 reporter, Co-Culture N = 1” value was 38% and the “% Inh of Gli1 reporter, Co-Culture N = 2” value was found to be 42%.
The like results for B3 were, in that order, 40% and 32%.
The matching figures for B4: 30% and 35%.
The like results for B5 were, in that order, 37% and 23%.
With B7, the “% Inh of Gli1 reporter, Co-Culture N = 1” value was 48% and the “% Inh of Gli1 reporter, Co-Culture N = 2” value came to 19%.
The matching figures for B8: 31% and 47%.

The next experiment has as its target T3, biotinylated human Shh (human, UniProt Q15465 24-197, limits assumed, biotinylated).
T3 construct: also called biotin-Shh; immobilized biotinylated Shh
Nature of the experiment: ELISA, hybridoma supernatant on neutravidin-captured biotin-Shh. A general note: In an ELISA, binding on a coated surface is turned into a signal by an enzyme label.
Experimental: After blocking with 1% milk in PBS, 40 μl of 500 ng/ml biotinylated Shh in 1×PBS, 1% milk (wt/vol) was added to each well and incubated for 1 hr at RT. Hybridoma supernatants (10 μl/well) were added to 40 μl of 1% milk, 0.05% Tween-20 in PBS per well and incubated 1 hr at RT. Following washing and incubation with secondary antibody (100 ng/ml goat-anti-human IgG Fc HRP), wells were developed with TMB substrate and subsequently quenched with 1 N HCl.
In turn, B1 gave an OD450 of 6 OD450.
On the same count and under the same terms, the figure for B2 is 4.04 OD450.
The molecule B3 gave an OD450 of 4.09 OD450.
On the same count and under the same terms, the figure for B4 is 2.49 OD450.
Still for that read-out and setting: the figure for B5 is 3.46 OD450; for B7 it is 3.73 OD450.
Still for that read-out and setting: the figure for B8 is 6 OD450.

For the origin of these results see patent US20120328625A1 (AstraZeneca / MedImmune, published 2012).
